We go through three molecules from patent publication US20170066816A1 (University of Texas, published 2017).

To fix the notation:
B1: murine m11E6 antibody (antibody, V domains shown)
VH: EVKVVESGGGLVQPGGSLRLSCTTSGFTFTDYYVSWVRQPPGKALEWLGFIRNKVNGYTTEFSSSVKGRFTISRDNSQSILYLQMNTLRVEDSATYYCARVSYYGRGWYFDYWGQGTTLTVSS
VL: DIVMTQSTSSLSASLGDRVTISCRASQDIDNYLSWFQQKPDGTVKLLIYYTSRLHSGVPSRFSGSGSGTDYSLTISSLDQEDIATYFCQQGNTFPWTFGGGTKLEIK
notes: also called parental murine 11E6 antibody
B2: murine m1B7 antibody (antibody, V domains shown)
VH: QVQLQQPGSELVRPGASVKLSCKASGYKFTSYWMHWVKQRPGQGLEWIGNIFPGSGSTNYDEKFNSKATLTVDTSSNTAYMQLSSLTSEDSAVYYCTRWLSGAYFDYWGQGTTLTVSS
VL: QIVLTQSPALMSASPGEKVTMTCSASSSVSFMYWYQQKPRSSPKPWIYLTSNLPSGVPARFSGSGSGTSYSLTISSMEAEDAATYYCQQWSSHPPTFGSGTKLEIK
notes: also called parental murine 1B7 antibody
B3: chimeric 1B7 antibody (antibody, V domains shown)
VH: B2 VH
VL: B2 VL
notes: also called ch1B7

The experiment concerns the target T1, pertussis toxin protein (Bordetella pertussis, UniProt P04977 35-269; P04978 28-226; P04979 29-227; P0A3R5 43-152; P04981 35-133).
T1 construct: also called PTx; PT
In words: BIAcore.
For B1, the kon came out at 80000 M⁻¹ s⁻¹.
For the molecule B2, the kon amounted to 170000 M⁻¹ s⁻¹.
In the case of B3, the on-rate constant (kon) came out at 150000 M⁻¹ s⁻¹.
